Reference: patent US20210206838A1
Where a chain is given by its changes, count along the chain named.

B1: MS-40 (antibody, V domains shown)
VH: QMQLQESGPGLVKPSETLSLTCSVSGASISDSYWSWIRRSPGKGLEWIGYVHKSGDTNYSPSLKSRVNLSLDTSKNQVSLSLVAATAADSGVYYCARTLHGRRIYGIVAFNEWFTYFYMDVWGNGTQVTVSS
VL: SDISVAPGQTARISCGEKSLGSRAVQWYQQRAGQAPSLIIYNNQDRPSGIPERFSGSPDSPFGTTATLTITSVEAGDEADYYCHIWDSRVPTKWVFGGGTTLTVLG
B2: MS-48 (antibody, V domains shown)
VH: B1 VH with V92K
VL: B1 VL with Q9E

How the values were obtained:
Assay in all cases: cell-based or functional assay
[1] = molecular target: HIV pseudovirus Ce1176_A3 (envelope glycoprotein) (HIV)
[2] = molecular target: HIV pseudovirus RHPA4259.7 (envelope glycoprotein) (HIV)
[3] = molecular target: HIV pseudovirus Du172.17 (envelope glycoprotein) (HIV)
[4] = molecular target: HIV pseudovirus CNE52 (envelope glycoprotein) (HIV)
[5] = molecular target: HIV pseudovirus 0260.v5.c36 (envelope glycoprotein) (HIV)
[6] = molecular target: HIV pseudovirus SC05.8C11.2344 (envelope glycoprotein) (HIV)

Row | Binder | neutralization IC50 [1] [µg/mL] | neutralization IC80 [1] [µg/mL] | neutralization IC50 [2] [µg/mL] | neutralization IC80 [2] [µg/mL] | neutralization IC50 [3] [µg/mL] | neutralization IC80 [3] [µg/mL] | neutralization IC50 [4] [µg/mL] | neutralization IC80 [4] [µg/mL] | neutralization IC50 [5] [µg/mL] | neutralization IC80 [5] [µg/mL] | neutralization IC50 [6] [µg/mL] | neutralization IC80 [6] [µg/mL]
1 | B1 | 0.009 | 0.033 | 0.006 | 0.025 | 0.046 | 0.36 | 2.22 | 22.2 | 0.043 | 0.149 | 0.014 | 0.05
2 | B2 | 0.009 | 0.036 | 0.013 | 0.034 | 0.02 | 0.165 | 2.81 | 21.9 | 0.021 | 0.108 | 0.016 | 0.063
